Drawing on article PMC6838055, “Effective genome editing and identification of a regiospecific gallic acid 4-O-glycosyltransferase in pomegranate (Punica granatum L.)” (Horticulture Research, 2019), this text covers Km and kcat for 1 protein.

Usually Km stands for the concentration of substrate that gives half-maximal velocity.

Substrate in the data set: O=C(O)c1cc(O)c(O)c(O)c1
Put plainly: HPLC product assay, steady-state kinetics. The note with it: UDP-glucose co-substrate (0.6 mM in standard assay), 50 mM MES pH 5.5, 3 mM 2-mercaptoethanol, 30 °C, gallic acid 30-500 μM. Format: biochemical, Punica granatum.

B1: PgUGT72BD1 (Punica granatum) (protein)
chain: MAQVSTKPHVALFASPGIGHLIPVLQLGERFVSRHNFVVTVFVVVTDAATAESQLKQQSSYKNLLNVVLLPPVDLTSLTNKPLAILSQLVLIVRQSLPDLRSAIASMKSRPTALIVDLFGTEAFAIADEFHMLKYEFFTTNAWFLALTLYAPHVDREHEDDHILRHMPLHIPGCASILYEDTVDVYTDRNDKLLHDDYVRIGRRLAEADGILINTWESLEPKTLQALRDPKAFGRFSQVRILPIGPLVSGFQSFGSSQPKDDILQWLDDQPTESVLYVSFGSGGTLSADQLTELAWGLEQSQHRFIWVVRPPQENSACGAYFEQAKRADGTPEYLPDGFVTRTQKLGLVVPMWAPQREILAHPSIGGFLSHCGWNSTLESLINGVPLIAWPLYAEQTMNATMLTDQLGIAARSRELMPNGVLGRHEIEKMVRTVMNKEDAKGETIRARSQDLKRTALLAVAEGGSSYAALSQVAQECKIGLVGLKQRARGA
notes: codon-optimized ORF in pET28a, His-tagged, E. coli BL21(DE3), Ni-NTA purified; no signal peptide detected
On to B1, for which the Km turned out to be 190 ± 70 µM and the kcat result is given as “(2.83 ± 0.5) × 10^−3 s^−1”.
